Test results as given in ChEMBL document CHEMBL2074526, “ATP-dependent transport of amphiphilic cations across the hepatocyte canalicular membrane mediated by mdr1 P-glycoprotein” (FEBS Lett, 1994).

Assays:
Assay type in all cases: functional, cell membranes
[1] = tested on: C=CC1C[N+]2(CCCCC)CCC1CC2C(O)c1ccnc2ccc(OC)cc12; assay: TP_TRANSPORTER: uptake in rat canalicular plasma membrane vesicles; settings: Canalicular plasma membrane vesicle
[2] = tested on: C=C[C@H]1CN2CC[C@H]1C[C@@H]2[C@@H](O)c1ccnc2ccc(OC)cc12; assay: (§1) TP_TRANSPORTER: uptake in rat canalicular membrane vesicle
[3] = molecular target: Multidrug resistance protein 1a (Rattus norvegicus) (UniProt Q6PSM0); assay: as §1

Row | Compound | Km [1] | Km [2] | Activity [3]
1 | Multidrug resistance protein 1a (Rattus norvegicus), Q6PSM0 | 0.4 µM | 5 µM | 
2 | CCC1C[N+]2(CCCC3(C)N=N3)C3CC45c6ccccc6N(C)C4C2CC1C3C5O (stereo not drawn) |  |  | substrate [+]
